Molecular target: cellular receptor used by the virus to infect target cells (ARPE 19 epithelial cells)
Assay: cell-based or functional assay

soluble HCMV pentameric complex (gH, gL, pUL128, pUL130, pUL131), purified, tag-free, produced in CHO-K1SV cells (from UniProt P12824 26-713; Q68672 32-278; P16837 23-171; F5HCP3 28-213; F5HET4 19-129)
IC50, inhibition of HCMV infection of ARPE 19 epithelial cells (complex pre-incubated with the target cells): 1.9 nM

Source: patent US20170119874A1
